Measured values reported in US12247238B2, “Mogroside biocatalysis methods and products” (The Coca-Cola Company, priority 2019, dated 2025).
Numbering of substitutions follows the chain as printed. Numbers in names are those of the source. Entries after “also recorded” stand apart in the source; their conditions may differ.

Columns and labels:
Type in all cases: biochemical
[1] = Example 8 standard mogroside biocatalytic assay, Mog V as substrate; details: 37° C., pH 5.6
[2] = Example 8 standard mogroside biocatalytic assay, Sia I as substrate; details: 37° C., pH 5.6
Protocol: (§1) Standard mogroside biocatalytic assays were performed at 37° C. in 500 μL volume 50 mM sodium citrate buffer pH 5.6, 10 mM magnesium chloride, 10 mM substrate (typically mogroside V or Siamenoside I) and 50 μg mL−1 enzyme, and incubated for 24-96 hours. Mogroside glucosidation activity was detected by direct HPLC detection and quantification of mogroside V substrate and mogroside products from filtered reaction supernatant, and quantified by comparison with standard curves based on peak area (see Analytical Methods).
(§2) Analytical Method: Mogroside compounds HPLC separation and quantification was conducted using a Synergi Hydro-RP column (250 mm×4.6 mm or 150 mm×4.6 mm) with an initial flow rate of 1 mL min−1 and a water: acetonitrile gradient as per below, similar to that described by Zhou et al. (WO 2014/150127). Compounds were detected at 210 nm using diode array detector (Agilent Technologies, USA), and calibration curves established using standard curves from 0.1 to 10 mM. 150 mm column retention times in minutes: mog V 9.5, sia 1 10.6, mog IVa 10.5, mog IV 11.3, mog III 12.6, mogl I 13.2. 250 mm column retention times: mog V 12.3, sia 1 13.2, mog IVa 13.5, mog IV 14.1, mog III 15.3, mog II 16.2.

[3] = Standard mogroside biocatalytic assay, mogroside V substrate; details: for Initial Rate / Reaction Progress / Sia 1: Mogroside hydrolysis; for Initial Rate / Reaction Progress / Sia 1 / Sia:MogIII / Sia:MogIV: 37 C., pH 5.6; for Reaction Progress / Sia 1 / Sia:MogIII / Sia:MogIV: 72 h; for Sia:MogIII / Sia:MogIV: product ratio
Protocol: as §1, with “μL,” for “μL”, “V)” for “V or Siamenoside I)”, “peak.” for “peak area (see Analytical Methods).”
(§3) Mogroside compounds HPLC separation and quantification was conducted using a Synergi Hydro-RP column (250 mm×4.6 mm or 150 mm×4.6 mm) with an initial flow rate of 1 mL min−1 and a water: acetonitrile gradient as per below, similar to that described by Zhou et al. (WO 2014/150127). Compounds were detected at 210 nm using diode array detector (Agilent Technologies, USA), and calibration curves established using standard curves from 0.1 to 10 mM.
(§4) Cells expressing enzyme variants grown in buffered minimal medium were induced for 72 hr with 1% methanol (refreshed every 24 hr), the culture supernatant harvested and assayed for standard ONPG activity over 30 minutes and mogroside V activity at pH 5.6, 37° C. for 72 hrs. The resultant activity data (Table 2) identified E200 and D258 as the likely catalytic pair for acid/base and nucleophilic attack of mogroside V by the A. oryzae β-glucosidase enzyme.

[4] = β-galactosidase ONPG activity assay; details: oNPG substrate, over 30 minutes
Protocol: Standard β-galactosidase assays were performed at room temperature using o-nitrophenyl-β-D-galactopyranoside (ONPG, Sigma) as a substrate in […] with detection of o-nitrophenol release at 420 nm (UV-Spectra Max Spectrophotometer, Molecular Devices, USA). A typical reaction contained 50 mM sodium citrate buffer pH 5.6, 10 mM magnesium chloride and 100 mM potassium chloride with 2 mM ONPG and the desired amount of enzyme (usually […]). Partially purified AoBG (Sigma G5160, USA) was used as a positive control at a final concentration of 1 U mL−1. Vmax was calculated using the SpectraMax Plus software (Molecular Devices, USA) and when required kinetics were determined by varying the concentration of substrate and kinetic determinants calculated using Hyper™ (J. S. Easterby, Liverpool University).
as §4

[5] = Example 8 standard mogroside biocatalytic assay, Mog V as substrate; details: 37° C., pH 5.6; for % Siamenoside I: 72 hr
Protocol: as §1, §2

[6] = Mogroside biocatalytic assay, Siamenoside I substrate; details: SiaI Substrate (10 mM) (24 h), pH 5.6, 37° C.
Protocol: as §1, with “μL,” for “μL”, “V)” for “V or Siamenoside I)”, “peak.” for “peak area (see Analytical Methods).”
as §3

[7] = Mogroside biocatalytic assay, equimolar MogV:SiaI substrate
Protocol: as §1, with “μL,” for “μL”, “V)” for “V or Siamenoside I)”, “peak.” for “peak area (see Analytical Methods).”
as §3

[8] = Mog V Substrate (10 mM) (24 h), pH 5.6, 37° C.
[9] = Equimolar MogV:SiaI Substrate (5 mM each) (48 h), pH 5.6, 37° C.

B1: D258E: A. oryzae β-galactosidase variant, D258E (protein, UniProt Q2UCU3 19-1005, looked up, variant D258E)
Beta-galactosidase A: ASIKHRLNGFTILEHPDPAKRDLLQDIVTWDDKSLFINGERIMLFSGEVHPFRLPVPSLWLDIFHKIRALGFNCVSFYIDWALLEGKPGDYRAEGIFALEPFFDAAKEAGIYLIARPGSYINAEVSGGGFPGWLQRVNGTLRSSDEPFLKATDNYIANAAAAVAKAQITNGGPVILYQPENEYSGGCCGVKYPDADYMQYVMDQARKADIVVPFISNDASPSGHNAPGSGTGAVDIYGHESYPLGFDCANPSVWPEGKLPDNFRTLHLEQSPSTPYSLLEFQAGAFDPWGGPGFEKCYALVNHEFSRVFYRNDLSFGVSTFNLYMTFGGTNWGNLGHPGGYTSYDYGSPITETRNVTREKYSDIKLLANFVKASPSYLTATPRNLTTGVYTDTSDLAVTPLIGDSPGSFFVVRHTDYSSQESTSYKLKLPTSAGNLTIPQLEGTLSLNGRDSKIHVVDYNVSGTNIIYSTAEVFTWKKFDGNKVLVLYGGPKEHHELAIASKSNVTIIEGSDSGIVSTRKGSSVIIGWDVSSTRRIVQVGDLRVFLLDRNSAYNYWVPELPTEGTSPGFSTSKTTASSIIVKAGYLLRGAHLDGADLHLTADFNATTPIEVIGAPTGAKNLFVNGEKASHTVDKNGIWSSEVKYAAPEIKLPGLKDLDWKYLDTLPEIKSSYDDSAWVSADLPKTKNTHRPLDTPTSLYSSDYGFHTGYLIYRGHFVANGKESEFFIRTQGGSAFGSSVWLNETYLGSWTGADYAMDGNSTYKLSQLESGKNYVITVVIDNLGLDENWTVGEETMKNPRGILSYKLSGQDASAITWKLTGNLGGEDYQDKVRGPLNEGGLYAERQGFHQPQPPSESWESGSPLEGLSKPGIGFYTAQFDLDLPKGWDVPLYFNFGNNTQAARAQLYVNGYQYGKFTGNVGPQTSFPVPEGILNYRGTNYVALSLWALESDGAKLGSFELSYTTPVLTGYGNVESPEQPKYEQRKGAY
- Km [1]: 2500 ± 200 µM
- kcat [1]: 966 ± 26 s⁻¹
- Km [2]: 3310 ± 800 µM
- kcat [2]: 36.8 ± 3.1 s⁻¹
- rate of mogroside hydrolysis (in words) [3]: increased initial rate of mogroside hydrolysis; also recorded: increased rate of mogroside V hydrolysis
- Initial Rate [3]: 2.70 µmol/min/mg
- Reaction Progress [3]: 99%
- Sia 1 [3]: 55%
- Sia:MogIII [3]: 2.8
- Sia:MogIV [3]: 2.1
- oNPG [4]: 41.4 ± 0.9 mAu/min/mg
- Reaction progress (% conversion) [5]: 99%
- % Siamenoside I [5]: 55%

B2: E142A: A. oryzae β-galactosidase variant, E142A (protein, UniProt Q2UCU3 19-1005, looked up, variant E142A)
Beta-galactosidase A: B1 Beta-galactosidase A with E124A, E240D
- Km [1]: 2000 ± 400 µM
- kcat [1]: 741 ± 38 s⁻¹
- Km [2]: 4420 ± 900 µM
- kcat [2]: 3.9 ± 0.7 s⁻¹
- Siamenoside I production/yield from mogroside V (in words) [3]: increased ratio of Siamenoside I production; also recorded: increased Siamenoside I yield
- mog III [3, 8]: 1 molar percentage
- mog V [3, 8]: 67 molar percentage
- sia I [3, 8]: 32 molar percentage
- Initial Rate [3]: 2.16 µmol/min/mg
- Reaction Progress [3]: 89%
- Sia 1 [3]: 73%
- Sia:MogIII [3]: 16.2
- Sia:MogIV [3]: 13
- oNPG [4]: 33.6 ± 0.4 mAu/min/mg
- mog II [6]: 3 molar percentage
- mog III [6]: 12 molar percentage
- sia I [6]: 84 molar percentage
- Reaction progress (% conversion) [5]: 91%
- % Siamenoside I [5]: 78 ± 2.8%
- mog II [7, 9]: 0.1 molar percentage
- mog III [7, 9]: 3 molar percentage
- mog IV [7, 9]: 0.2 molar percentage
- mog V [7, 9]: 10 molar percentage
- sia I [7, 9]: 82 molar percentage
- effectiveness of Siamenoside I as a substrate in the presence of mogroside V (in words) ([7]; comparison of wildtype and variant): reducing the effectiveness of Siamenoside I as a substrate
